Our source for the fold increase in affinity, membrane fractions against whole cells, EC50 and fold increase of fractional binding with increasing mini-Gs values is PMC10063554.

Assay [1] concerns the target SNAP-tagged wild-type human PTH1R (human) (UniProt Q03431). Nature of the assay: AlphaScreen or HTRF; crude membrane fractions (0.2–1 µg per well) of HEK293T cells with SNAP-Lumi4-Tb-labelled PTH1R, without mini-Gs; labeled M-PTH(1–14) tracer with unlabeled M-PTH(1–14); 4 h on ice. A general note: Alpha assays give light when donor and acceptor beads are brought close together.

The target is the same in assay [2]. Put plainly: AlphaScreen or HTRF; binding of 40 nM M-PTH(1–14) to membrane fractions supplemented with increasing concentrations of mini-Gs; data relative to PTH1R without mini-Gs; EC50 of mini-Gs read through ligand occupancy, apparent.

pEC50: −log10 of the molar value.

With “Human [Ac5c^1, Aib^3, Q^10, Har^11, A^12, W^14]PTH(1–14) (peptide)”, the fold increase in affinity, membrane fractions against whole cells in assay [1] stood at 5 fold.

Broadly, the pEC50 is −log10 of the EC50, conventionally taken in molar units. As for Mini-Gs 393, in assay [2], the negative-log EC50 (pEC50) is 5.86.

Regarding “M-PTH(1–14) labeled at K^13 with HiLyte dye 647 (peptide)”, the fold increase of fractional binding with increasing mini-Gs in assay [2] was less than 2 fold.
